T1: TNFR1 (Homo sapiens, UniProt P19438)
T1 chain: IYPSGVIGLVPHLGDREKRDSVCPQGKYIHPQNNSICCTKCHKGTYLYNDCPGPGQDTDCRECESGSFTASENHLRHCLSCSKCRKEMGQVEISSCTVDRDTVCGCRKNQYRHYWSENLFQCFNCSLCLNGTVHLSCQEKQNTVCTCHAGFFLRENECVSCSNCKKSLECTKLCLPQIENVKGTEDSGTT


Target: T1, TNFR1
Assay: yeast display SC50

Binder	apparent Kd (screen)
E73D (designed binder) MTLQELLREEALRRAEAEAFRYALELLAEKFPEQKEYLLDLAEEIESQIRSLSGVDVEDVRKFLDKEWAWVKDLLAEHPAELAEVEAARAARLAELRAEVEAKVAA	539 pM
A23W (designed binder) MTLQELLREEALRRAEAEAFRYWLELLAEKFPEQKEYLLDLAEEIESQIRSLSGVDVEDVRKFLDKEWAWVKELLAEHPAELAEVEAARAARLAELRAEVEAKVAA	869 pM
L41D (designed binder) MTLQELLREEALRRAEAEAFRYALELLAEKFPEQKEYLLDDAEEIESQIRSLSGVDVEDVRKFLDKEWAWVKELLAEHPAELAEVEAARAARLAELRAEVEAKVAA	1270 pM
Y22V (designed binder) MTLQELLREEALRRAEAEAFRVALELLAEKFPEQKEYLLDLAEEIESQIRSLSGVDVEDVRKFLDKEWAWVKELLAEHPAELAEVEAARAARLAELRAEVEAKVAA	790 pM
K35F (designed binder) MTLQELLREEALRRAEAEAFRYALELLAEKFPEQFEYLLDLAEEIESQIRSLSGVDVEDVRKFLDKEWAWVKELLAEHPAELAEVEAARAARLAELRAEVEAKVAA	539 pM
P32E (designed binder) MTLQELLREEALRRAEAEAFRYALELLAEKFEEQKEYLLDLAEEIESQIRSLSGVDVEDVRKFLDKEWAWVKELLAEHPAELAEVEAARAARLAELRAEVEAKVAA	490 pM
E101R (designed binder) MTLQELLREEALRRAEAEAFRYALELLAEKFPEQKEYLLDLAEEIESQIRSLSGVDVEDVRKFLDKEWAWVKELLAEHPAELAEVEAARAARLAELRAEVRAKVAA	490 pM
D56G (designed binder) MTLQELLREEALRRAEAEAFRYALELLAEKFPEQKEYLLDLAEEIESQIRSLSGVGVEDVRKFLDKEWAWVKELLAEHPAELAEVEAARAARLAELRAEVEAKVAA	956 pM
A80T (designed binder) MTLQELLREEALRRAEAEAFRYALELLAEKFPEQKEYLLDLAEEIESQIRSLSGVDVEDVRKFLDKEWAWVKELLAEHPTELAEVEAARAARLAELRAEVEAKVAA	718 pM
E36F (designed binder) MTLQELLREEALRRAEAEAFRYALELLAEKFPEQKFYLLDLAEEIESQIRSLSGVDVEDVRKFLDKEWAWVKELLAEHPAELAEVEAARAARLAELRAEVEAKVAA	539 pM
V60Q (designed binder) MTLQELLREEALRRAEAEAFRYALELLAEKFPEQKEYLLDLAEEIESQIRSLSGVDVEDQRKFLDKEWAWVKELLAEHPAELAEVEAARAARLAELRAEVEAKVAA	718 pM
L3R (designed binder) MTRQELLREEALRRAEAEAFRYALELLAEKFPEQKEYLLDLAEEIESQIRSLSGVDVEDVRKFLDKEWAWVKELLAEHPAELAEVEAARAARLAELRAEVEAKVAA	2480 pM
L6H (designed binder) MTLQEHLREEALRRAEAEAFRYALELLAEKFPEQKEYLLDLAEEIESQIRSLSGVDVEDVRKFLDKEWAWVKELLAEHPAELAEVEAARAARLAELRAEVEAKVAA	8560 pM
Y22D (designed binder) MTLQELLREEALRRAEAEAFRDALELLAEKFPEQKEYLLDLAEEIESQIRSLSGVDVEDVRKFLDKEWAWVKELLAEHPAELAEVEAARAARLAELRAEVEAKVAA	446 pM
I45L (designed binder) MTLQELLREEALRRAEAEAFRYALELLAEKFPEQKEYLLDLAEELESQIRSLSGVDVEDVRKFLDKEWAWVKELLAEHPAELAEVEAARAARLAELRAEVEAKVAA	539 pM
S51V (designed binder) MTLQELLREEALRRAEAEAFRYALELLAEKFPEQKEYLLDLAEEIESQIRVLSGVDVEDVRKFLDKEWAWVKELLAEHPAELAEVEAARAARLAELRAEVEAKVAA	2050 pM
R50P (designed binder) MTLQELLREEALRRAEAEAFRYALELLAEKFPEQKEYLLDLAEEIESQIPSLSGVDVEDVRKFLDKEWAWVKELLAEHPAELAEVEAARAARLAELRAEVEAKVAA	2250 pM
K62D (designed binder) MTLQELLREEALRRAEAEAFRYALELLAEKFPEQKEYLLDLAEEIESQIRSLSGVDVEDVRDFLDKEWAWVKELLAEHPAELAEVEAARAARLAELRAEVEAKVAA	593 pM

Binder	apparent Kd (screen)
E73Q (designed binder) MTLQELLREEALRRAEAEAFRYALELLAEKFPEQKEYLLDLAEEIESQIRSLSGVDVEDVRKFLDKEWAWVKQLLAEHPAELAEVEAARAARLAELRAEVEAKVAA	446 pM
K30D (designed binder) MTLQELLREEALRRAEAEAFRYALELLAEDFPEQKEYLLDLAEEIESQIRSLSGVDVEDVRKFLDKEWAWVKELLAEHPAELAEVEAARAARLAELRAEVEAKVAA	1270 pM
A23C (designed binder) MTLQELLREEALRRAEAEAFRYCLELLAEKFPEQKEYLLDLAEEIESQIRSLSGVDVEDVRKFLDKEWAWVKELLAEHPAELAEVEAARAARLAELRAEVEAKVAA	446 pM
A83F (designed binder) MTLQELLREEALRRAEAEAFRYALELLAEKFPEQKEYLLDLAEEIESQIRSLSGVDVEDVRKFLDKEWAWVKELLAEHPAELFEVEAARAARLAELRAEVEAKVAA	593 pM
R50I (designed binder) MTLQELLREEALRRAEAEAFRYALELLAEKFPEQKEYLLDLAEEIESQIISLSGVDVEDVRKFLDKEWAWVKELLAEHPAELAEVEAARAARLAELRAEVEAKVAA	956 pM
V55T (designed binder) MTLQELLREEALRRAEAEAFRYALELLAEKFPEQKEYLLDLAEEIESQIRSLSGTDVEDVRKFLDKEWAWVKELLAEHPAELAEVEAARAARLAELRAEVEAKVAA	718 pM
A98E (designed binder) MTLQELLREEALRRAEAEAFRYALELLAEKFPEQKEYLLDLAEEIESQIRSLSGVDVEDVRKFLDKEWAWVKELLAEHPAELAEVEAARAARLAELREEVEAKVAA	869 pM
L6E (designed binder) MTLQEELREEALRRAEAEAFRYALELLAEKFPEQKEYLLDLAEEIESQIRSLSGVDVEDVRKFLDKEWAWVKELLAEHPAELAEVEAARAARLAELRAEVEAKVAA	8560 pM
E5N (designed binder) MTLQNLLREEALRRAEAEAFRYALELLAEKFPEQKEYLLDLAEEIESQIRSLSGVDVEDVRKFLDKEWAWVKELLAEHPAELAEVEAARAARLAELRAEVEAKVAA	446 pM
L52H (designed binder) MTLQELLREEALRRAEAEAFRYALELLAEKFPEQKEYLLDLAEEIESQIRSHSGVDVEDVRKFLDKEWAWVKELLAEHPAELAEVEAARAARLAELRAEVEAKVAA	6430 pM
R92N (designed binder) MTLQELLREEALRRAEAEAFRYALELLAEKFPEQKEYLLDLAEEIESQIRSLSGVDVEDVRKFLDKEWAWVKELLAEHPAELAEVEAARAANLAELRAEVEAKVAA	718 pM
A90G (designed binder) MTLQELLREEALRRAEAEAFRYALELLAEKFPEQKEYLLDLAEEIESQIRSLSGVDVEDVRKFLDKEWAWVKELLAEHPAELAEVEAARGARLAELRAEVEAKVAA	653 pM
R89F (designed binder) MTLQELLREEALRRAEAEAFRYALELLAEKFPEQKEYLLDLAEEIESQIRSLSGVDVEDVRKFLDKEWAWVKELLAEHPAELAEVEAAFAARLAELRAEVEAKVAA	1050 pM
R89V (designed binder) MTLQELLREEALRRAEAEAFRYALELLAEKFPEQKEYLLDLAEEIESQIRSLSGVDVEDVRKFLDKEWAWVKELLAEHPAELAEVEAAVAARLAELRAEVEAKVAA	790 pM
L75M (designed binder) MTLQELLREEALRRAEAEAFRYALELLAEKFPEQKEYLLDLAEEIESQIRSLSGVDVEDVRKFLDKEWAWVKELMAEHPAELAEVEAARAARLAELRAEVEAKVAA	1540 pM
L7C (designed binder) MTLQELCREEALRRAEAEAFRYALELLAEKFPEQKEYLLDLAEEIESQIRSLSGVDVEDVRKFLDKEWAWVKELLAEHPAELAEVEAARAARLAELRAEVEAKVAA	8560 pM
A106I (designed binder) MTLQELLREEALRRAEAEAFRYALELLAEKFPEQKEYLLDLAEEIESQIRSLSGVDVEDVRKFLDKEWAWVKELLAEHPAELAEVEAARAARLAELRAEVEAKVAI	593 pM
